From patent US20140087995A1 (published 2014)
Numbered stars: 1 amine (or outer) side, 2 acyl side, 3 side chain; on linkers, the order of the positions; unused ones are H or OH. Bridge positions count the residues as written; N and C are the ends. Side chains are listed from the residue outwards. Ends that are not written are not given here. * marks the point of attachment. C20 diacid = O=C(O)CCCCCCCCCCCCCCCCCCC(=O)*; γGlu = O=C(O)[C@H](CCC(=O)[*:2])N[*:1]

T1: human amylin receptor (amylin 3(a) receptor: human calcitonin receptor plus RAMP-3) (human, UniProt P30988 25-474; O60896 24-148)
T1 construct: whole, on cells; functional assay (II)a used the whole cells; also called hAmylin-R; hAmylinR
T1 sequence (looked up) 1: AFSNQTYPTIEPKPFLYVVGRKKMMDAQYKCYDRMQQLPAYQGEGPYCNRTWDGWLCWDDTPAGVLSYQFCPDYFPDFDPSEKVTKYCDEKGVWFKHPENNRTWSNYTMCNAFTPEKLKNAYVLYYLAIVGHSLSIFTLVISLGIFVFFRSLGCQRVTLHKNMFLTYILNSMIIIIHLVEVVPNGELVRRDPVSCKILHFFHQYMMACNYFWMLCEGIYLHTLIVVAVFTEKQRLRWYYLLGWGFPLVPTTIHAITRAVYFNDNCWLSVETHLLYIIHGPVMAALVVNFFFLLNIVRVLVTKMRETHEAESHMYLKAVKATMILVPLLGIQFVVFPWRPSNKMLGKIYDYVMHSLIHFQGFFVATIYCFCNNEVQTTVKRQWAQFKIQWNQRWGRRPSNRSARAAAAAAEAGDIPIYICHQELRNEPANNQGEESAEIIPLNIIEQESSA
T1 sequence (looked up) 2: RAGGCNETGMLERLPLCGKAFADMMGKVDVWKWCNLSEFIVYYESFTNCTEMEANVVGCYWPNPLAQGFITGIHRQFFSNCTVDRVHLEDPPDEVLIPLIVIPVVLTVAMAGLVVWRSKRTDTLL

T2: human calcitonin receptor (human, UniProt P30988 25-474)
T2 sequence (looked up): T1 sequence (looked up) 1

B1: N^ε1-[(4S)-4-carboxy-4-(19-carboxynonadecanoylamino)butanoyl]-[His14,Arg17,Pro21,Pro27,His35]-h-amylin (peptide)
peptide: K([γGlu-C20 diacid])CNTATCATQRLAHFLRHSSPNFGAIPSSTNVGSHTY-NH2
modifications: disulfide 2-7; N-terminus assumed
SMILES: CC[C@H](C)[C@H](NC(=O)[C@H](C)NC(=O)CNC(=O)[C@H](Cc1ccccc1)NC(=O)[C@H](CC(N)=O)NC(=O)[C@@H]1CCCN1C(=O)[C@H](CO)NC(=O)[C@H](CO)NC(=O)[C@H](Cc1c[nH]cn1)NC(=O)[C@H](CCCNC(=N)N)NC(=O)[C@H](CC(C)C)NC(=O)[C@H](Cc1ccccc1)NC(=O)[C@H](Cc1c[nH]cn1)NC(=O)[C@H](C)NC(=O)[C@H](CC(C)C)NC(=O)[C@H](CCCNC(=N)N)NC(=O)[C@H](CCC(N)=O)NC(=O)[C@@H](NC(=O)[C@H](C)NC(=O)[C@@H]1CSSC[C@H](NC(=O)[C@@H](N)CCCCNC(=O)CC[C@H](NC(=O)CCCCCCCCCCCCCCCCCCC(=O)O)C(=O)O)C(=O)N[C@@H](CC(N)=O)C(=O)N[C@@H]([C@@H](C)O)C(=O)N[C@@H](C)C(=O)N[C@@H]([C@@H](C)O)C(=O)N1)[C@@H](C)O)C(=O)N1CCC[C@H]1C(=O)N[C@@H](CO)C(=O)N[C@@H](CO)C(=O)N[C@H](C(=O)N[C@@H](CC(N)=O)C(=O)N[C@H](C(=O)NCC(=O)N[C@@H](CO)C(=O)N[C@@H](Cc1c[nH]cn1)C(=O)N[C@H](C(=O)N[C@@H](Cc1ccc(O)cc1)C(N)=O)[C@@H](C)O)C(C)C)[C@@H](C)O
notes: also called compound 66
B2: N^ε1-[(4S)-4-carboxy-4-[[(4S)-4-carboxy-4-(19-carboxynonadecanoylamino)butanoyl]amino]butanoyl]-[Glu14,Arg17,Pro21,Pro27,Pro34,Glu35]-h-amylin (peptide)
peptide: K([γGlu-γGlu-C20 diacid])CNTATCATQRLAEFLRHSSPNFGAIPSSTNVGPETY-NH2
modifications: disulfide 2-7; N-terminus assumed
SMILES: CC[C@H](C)[C@H](NC(=O)[C@H](C)NC(=O)CNC(=O)[C@H](Cc1ccccc1)NC(=O)[C@H](CC(N)=O)NC(=O)[C@@H]1CCCN1C(=O)[C@H](CO)NC(=O)[C@H](CO)NC(=O)[C@H](Cc1c[nH]cn1)NC(=O)[C@H](CCCNC(=N)N)NC(=O)[C@H](CC(C)C)NC(=O)[C@H](Cc1ccccc1)NC(=O)[C@H](CCC(=O)O)NC(=O)[C@H](C)NC(=O)[C@H](CC(C)C)NC(=O)[C@H](CCCNC(=N)N)NC(=O)[C@H](CCC(N)=O)NC(=O)[C@@H](NC(=O)[C@H](C)NC(=O)[C@@H]1CSSC[C@H](NC(=O)[C@@H](N)CCCCNC(=O)CC[C@H](NC(=O)CC[C@H](NC(=O)CCCCCCCCCCCCCCCCCCC(=O)O)C(=O)O)C(=O)O)C(=O)N[C@@H](CC(N)=O)C(=O)N[C@@H]([C@@H](C)O)C(=O)N[C@@H](C)C(=O)N[C@@H]([C@@H](C)O)C(=O)N1)[C@@H](C)O)C(=O)N1CCC[C@H]1C(=O)N[C@@H](CO)C(=O)N[C@@H](CO)C(=O)N[C@H](C(=O)N[C@@H](CC(N)=O)C(=O)N[C@H](C(=O)NCC(=O)N1CCC[C@H]1C(=O)N[C@@H](CCC(=O)O)C(=O)N[C@H](C(=O)N[C@@H](Cc1ccc(O)cc1)C(N)=O)[C@@H](C)O)C(C)C)[C@@H](C)O
B3: N^ε1-[(4S)-4-carboxy-4-[[(4S)-4-carboxy-4-(19-carboxynonadecanoylamino)butanoyl]amino]butanoyl]-[Glu14,Arg17,Pro21,Pro27,Pro34,Glu35,Pro37]-h-amylin (peptide)
peptide: K([γGlu-γGlu-C20 diacid])CNTATCATQRLAEFLRHSSPNFGAIPSSTNVGPETP-NH2
modifications: disulfide 2-7; N-terminus assumed
SMILES: CC[C@H](C)[C@H](NC(=O)[C@H](C)NC(=O)CNC(=O)[C@H](Cc1ccccc1)NC(=O)[C@H](CC(N)=O)NC(=O)[C@@H]1CCCN1C(=O)[C@H](CO)NC(=O)[C@H](CO)NC(=O)[C@H](Cc1c[nH]cn1)NC(=O)[C@H](CCCNC(=N)N)NC(=O)[C@H](CC(C)C)NC(=O)[C@H](Cc1ccccc1)NC(=O)[C@H](CCC(=O)O)NC(=O)[C@H](C)NC(=O)[C@H](CC(C)C)NC(=O)[C@H](CCCNC(=N)N)NC(=O)[C@H](CCC(N)=O)NC(=O)[C@@H](NC(=O)[C@H](C)NC(=O)[C@@H]1CSSC[C@H](NC(=O)[C@@H](N)CCCCNC(=O)CC[C@H](NC(=O)CC[C@H](NC(=O)CCCCCCCCCCCCCCCCCCC(=O)O)C(=O)O)C(=O)O)C(=O)N[C@@H](CC(N)=O)C(=O)N[C@@H]([C@@H](C)O)C(=O)N[C@@H](C)C(=O)N[C@@H]([C@@H](C)O)C(=O)N1)[C@@H](C)O)C(=O)N1CCC[C@H]1C(=O)N[C@@H](CO)C(=O)N[C@@H](CO)C(=O)N[C@H](C(=O)N[C@@H](CC(N)=O)C(=O)N[C@H](C(=O)NCC(=O)N1CCC[C@H]1C(=O)N[C@@H](CCC(=O)O)C(=O)N[C@H](C(=O)N1CCC[C@H]1C(N)=O)[C@@H](C)O)C(C)C)[C@@H](C)O
B4: N^ε1-[(4S)-4-carboxy-4-[[(4S)-4-carboxy-4-(19-carboxynonadecanoylamino)butanoyl]amino]butanoyl]-[Asp14,Arg17,Pro21,Pro27,Pro34,Glu35]-h-amylin (peptide)
peptide: K([γGlu-γGlu-C20 diacid])CNTATCATQRLADFLRHSSPNFGAIPSSTNVGPETY-NH2
modifications: disulfide 2-7
B5: N^ε1-[(4S)-4-carboxy-4-[[(4S)-4-carboxy-4-(19-carboxynonadecanoylamino)butanoyl]amino]butanoyl]-[Glu14,Arg17,Pro21,Pro27,His34,Glu35]-h-amylin (peptide)
peptide: K([γGlu-γGlu-C20 diacid])CNTATCATQRLAEFLRHSSPNFGAIPSSTNVGHETY-NH2
modifications: disulfide 2-7; N-terminus assumed
SMILES: CC[C@H](C)[C@H](NC(=O)[C@H](C)NC(=O)CNC(=O)[C@H](Cc1ccccc1)NC(=O)[C@H](CC(N)=O)NC(=O)[C@@H]1CCCN1C(=O)[C@H](CO)NC(=O)[C@H](CO)NC(=O)[C@H](Cc1c[nH]cn1)NC(=O)[C@H](CCCNC(=N)N)NC(=O)[C@H](CC(C)C)NC(=O)[C@H](Cc1ccccc1)NC(=O)[C@H](CCC(=O)O)NC(=O)[C@H](C)NC(=O)[C@H](CC(C)C)NC(=O)[C@H](CCCNC(=N)N)NC(=O)[C@H](CCC(N)=O)NC(=O)[C@@H](NC(=O)[C@H](C)NC(=O)[C@@H]1CSSC[C@H](NC(=O)[C@@H](N)CCCCNC(=O)CC[C@H](NC(=O)CC[C@H](NC(=O)CCCCCCCCCCCCCCCCCCC(=O)O)C(=O)O)C(=O)O)C(=O)N[C@@H](CC(N)=O)C(=O)N[C@@H]([C@@H](C)O)C(=O)N[C@@H](C)C(=O)N[C@@H]([C@@H](C)O)C(=O)N1)[C@@H](C)O)C(=O)N1CCC[C@H]1C(=O)N[C@@H](CO)C(=O)N[C@@H](CO)C(=O)N[C@H](C(=O)N[C@@H](CC(N)=O)C(=O)N[C@H](C(=O)NCC(=O)N[C@@H](Cc1c[nH]cn1)C(=O)N[C@@H](CCC(=O)O)C(=O)N[C@H](C(=O)N[C@@H](Cc1ccc(O)cc1)C(N)=O)[C@@H](C)O)C(C)C)[C@@H](C)O
B6: N^ε1-[(4S)-4-carboxy-4-[[(4S)-4-carboxy-4-(19-carboxynonadecanoylamino)butanoyl]amino]butanoyl]-[Glu14,Arg17,Pro21,Pro27,Pro34,His35]-h-amylin (peptide)
peptide: K([γGlu-γGlu-C20 diacid])CNTATCATQRLAEFLRHSSPNFGAIPSSTNVGPHTY-NH2
modifications: disulfide 2-7 (inferred)
B7: N^ε1-[(4S)-4-carboxy-4-[[(4S)-4-carboxy-4-(19-carboxynonadecanoylamino)butanoyl]amino]butanoyl]-[Glu14,Arg17,Pro21,Pro27,Arg34,Glu35]-h-amylin (peptide)
peptide: K([γGlu-γGlu-C20 diacid])CNTATCATQRLAEFLRHSSPNFGAIPSSTNVGRETY-NH2
modifications: disulfide 2-7; N-terminus assumed
SMILES: CC[C@H](C)[C@H](NC(=O)[C@H](C)NC(=O)CNC(=O)[C@H](Cc1ccccc1)NC(=O)[C@H](CC(N)=O)NC(=O)[C@@H]1CCCN1C(=O)[C@H](CO)NC(=O)[C@H](CO)NC(=O)[C@H](Cc1c[nH]cn1)NC(=O)[C@H](CCCNC(=N)N)NC(=O)[C@H](CC(C)C)NC(=O)[C@H](Cc1ccccc1)NC(=O)[C@H](CCC(=O)O)NC(=O)[C@H](C)NC(=O)[C@H](CC(C)C)NC(=O)[C@H](CCCNC(=N)N)NC(=O)[C@H](CCC(N)=O)NC(=O)[C@@H](NC(=O)[C@H](C)NC(=O)[C@@H]1CSSC[C@H](NC(=O)[C@@H](N)CCCCNC(=O)CC[C@H](NC(=O)CC[C@H](NC(=O)CCCCCCCCCCCCCCCCCCC(=O)O)C(=O)O)C(=O)O)C(=O)N[C@@H](CC(N)=O)C(=O)N[C@@H]([C@@H](C)O)C(=O)N[C@@H](C)C(=O)N[C@@H]([C@@H](C)O)C(=O)N1)[C@@H](C)O)C(=O)N1CCC[C@H]1C(=O)N[C@@H](CO)C(=O)N[C@@H](CO)C(=O)N[C@H](C(=O)N[C@@H](CC(N)=O)C(=O)N[C@H](C(=O)NCC(=O)N[C@@H](CCCNC(=N)N)C(=O)N[C@@H](CCC(=O)O)C(=O)N[C@H](C(=O)N[C@@H](Cc1ccc(O)cc1)C(N)=O)[C@@H](C)O)C(C)C)[C@@H](C)O
B8: N^ε1-[(4S)-4-carboxy-4-[[(4S)-4-carboxy-4-(19-carboxynonadecanoylamino)butanoyl]amino]butanoyl]-[Glu14,Arg17,Pro21,Pro31,Pro34,Glu35]-h-amylin (peptide)
peptide: K([γGlu-γGlu-C20 diacid])CNTATCATQRLAEFLRHSSPNFGAILSSTPVGPETY-NH2
modifications: disulfide 2-7 (inferred)

The binders below were run against T1, human amylin receptor (amylin 3(a) …) (assay: SPA competition binding, displacement of 125I-rat amylin, membranes of BHK amylin 3(a)/CRE-luc cells).
Summary of the method: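 One-site competition analysis of SPA counts yielded IC₅₀ as a measure of affinity. Membranes were at 35 ng/μL final; incubation was 120 min at 25° C, pH 7.4.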

| Binder | IC50 [nM] |
| --- | --- |
| B1 | 0.396 |
| B2 | 0.121 |
| B3 | 0.533 |
| B4 | 0.172 |
| B5 | 0.525 |
| B6 | 0.377 |
| B7 | 0.957 |
| B8 | 0.069 |

What follows are binders tested against T2, human calcitonin receptor (assay: cell-based or functional assay).

| Binder | hCTR funct. EC50 (pM) |
| --- | --- |
| B1 | 542 |
| B2 | 2360 |
| B3 | 102 |
| B4 | 843 |
| B5 | 7050 |
| B6 | 2830 |
| B7 | 7430 |
| B8 | 1280 |

What follows are binders tested against T1, human amylin receptor (amylin 3(a) …) (assay: cell-based or functional assay).

| Binder | Ratio hCT/hAmylin funct. | hAmylin-R funct. EC50 (pM) |
| --- | --- | --- |
| B1 | 20.1 | 27 |
| B2 | – | 225 |
| B3 | 0.8 | 132 |
| B4 | 5.3 | 159 |
| B5 | – | 445 |
| B6 | – | 172 |
| B7 | – | 703 |
| B8 | 5.8 | 222 |
